Test results from the Human Domainome abundance scans (Beltran et al. 2025).
± gives the uncertainty stated by the source.

B1: POU domain, class 3, transcription factor 2, residues 356 to 411; numbered along this chain, P20265 (parent)
chain: KKRTSIEVSVKGALESHFLKCPKPSAQEITSLADSLQLEKEVVRVWFCNRRQKEKR
B2: GA-binding protein alpha chain, residues 172 to 250; numbered along this chain, Q06546 (parent)
chain: GYRKEQERLGIPYDPIQWSTDQVLHWVVWVMKEFSMTDIDLTTLNISGRELCSLNQEDFFQRVPRGEILWSHLELLRKY

Variants of: B1
Test: abundance fitness (aPCA) (normalised: wild type 0, dead -1); higher = more abundant; growth selection in yeast, the domain comes from the species named
Details: Homo sapiens

Row | Variant | abundance fitness
1 | E54R | -0.472 ± 0.085
2 | E54N | -0.407 ± 0.21
3 | E54H | -0.417 ± 0.28
4 | E54I | -0.665 ± 0.15
5 | E54C | -0.284 ± 0.15
6 | E54L | -0.313 ± 0.095
7 | E54F | -0.764 ± 0.22
8 | E54D | -0.185 ± 0.15
9 | E54S | -0.538 ± 0.1
10 | E54T | -0.518 ± 0.15
11 | E54K | -0.495 ± 0.18
12 | E54V | -0.466 ± 0.096
13 | E54A | -0.255 ± 0.12
14 | E54P | -0.861 ± 0.19
15 | E54Y | -0.337 ± 0.17
16 | E54Q | -0.177 ± 0.16
17 | E54G | -0.454 ± 0.094
18 | E54M | -0.407 ± 0.18
19 | E54W | -0.581 ± 0.12
20 | R56M | 0.157 ± 0.18
21 | R56L | 0.131 ± 0.14
22 | R56S | -0.194 ± 0.14
23 | R56T | 0.063 ± 0.26
24 | R56Y | -0.413 ± 0.27
25 | R56P | -0.58 ± 0.29
26 | R56W | -0.234 ± 0.14

Row | Variant | abundance fitness
27 | R56G | 0.042 ± 0.1
28 | R56D | 0.12 ± 0.18
29 | R56E | -0.031 ± 0.21
30 | R56N | 0.008 ± 0.42
31 | R56V | -0.033 ± 0.13
32 | R56I | -0.508 ± 0.48
33 | R56A | -0.335 ± 0.23
34 | R56C | 0.045 ± 0.24
35 | R56Q | -0.119 ± 0.29
36 | R50W | -0.924 ± 0.13
37 | R50S | -0.659 ± 0.12
38 | R50V | -1 ± 0.13
39 | K55V | -0.116 ± 0.1
40 | K55P | -0.396 ± 0.16
41 | K55H | -0.274 ± 0.25
42 | K55G | -0.029 ± 0.1
43 | K55W | -0.187 ± 0.13
44 | K55Y | -0.019 ± 0.14
45 | K55R | -0.211 ± 0.11
46 | K55I | -0.036 ± 0.13
47 | K55T | -0.029 ± 0.13
48 | K55D | 0.036 ± 0.16
49 | K55A | 0.139 ± 0.12
50 | K55Q | -0.244 ± 0.2
51 | K55E | 0.093 ± 0.14
52 | K55C | -0.33 ± 0.16

Row | Variant | abundance fitness
53 | K55F | -0.167 ± 0.14
54 | K55L | -0.087 ± 0.084
55 | K55N | -0.046 ± 0.15
56 | K55S | 0.024 ± 0.099
57 | K55M | -0.056 ± 0.14
58 | R51L | 0.061 ± 0.077
59 | R51C | -0.442 ± 0.22
60 | R51E | -0.154 ± 0.09
61 | R51H | -0.098 ± 0.17
62 | R51V | -0.245 ± 0.073
63 | R51W | -0.1 ± 0.11
64 | R51T | -0.447 ± 0.12
65 | R51G | -0.198 ± 0.081
66 | R51D | -0.381 ± 0.13
67 | R51P | -0.831 ± 0.14
68 | R51A | -0.136 ± 0.076
69 | R51I | -0.397 ± 0.14
70 | R51N | -0.402 ± 0.19
71 | R51F | -0.354 ± 0.17
72 | R51M | -0.156 ± 0.1
73 | R51S | -0.323 ± 0.1
74 | Q52R | -0.104 ± 0.068
75 | Q52I | -0.145 ± 0.15
76 | Q52L | -0.125 ± 0.075
77 | Q52K | -0.001 ± 0.14
78 | Q52G | -0.076 ± 0.068

Row | Variant | abundance fitness
79 | Q52S | -0.135 ± 0.085
80 | Q52E | 0.222 ± 0.15
81 | Q52V | -0.131 ± 0.094
82 | Q52P | -0.956 ± 0.17
83 | Q52M | -0.053 ± 0.12
84 | Q52N | -0.007 ± 0.1
85 | Q52D | 0.015 ± 0.18
86 | Q52H | -0.002 ± 0.15
87 | Q52T | 0.039 ± 0.12
88 | Q52F | -0.106 ± 0.11
89 | Q52A | 0.039 ± 0.1
90 | Q52W | -0.241 ± 0.11
91 | K53L | -0.18 ± 0.18
92 | K53T | 0.024 ± 0.26
93 | K53M | 0.11 ± 0.29
94 | K53G | -0.112 ± 0.44
95 | K53D | -0.234 ± 0.26
96 | K53C | 0.025 ± 0.47
97 | K53H | -0.204 ± 0.49
98 | K53Y | -0.545 ± 0.29
99 | K53R | -0.457 ± 0.31
100 | K53V | -0.517 ± 0.35
101 | K53A | -0.602 ± 0.34

Variants of: B2
Test: as above
Details: Homo sapiens

Row | Variant | abundance fitness
102 | Y13I | -0.022 ± 0.074
103 | Y13A | -0.085 ± 0.039
104 | Y13C | -0.138 ± 0.076
105 | Y13N | 0.006 ± 0.11
106 | Y13P | -0.058 ± 0.049
107 | M31C | 0.069 ± 0.078
108 | M31I | -0.031 ± 0.076
109 | M31D | -0.794 ± 0.33
110 | M31N | -0.191 ± 0.099
111 | D21V | -0.172 ± 0.035
112 | I16K | -0.025 ± 0.085
113 | I16V | -0.014 ± 0.034
114 | I16H | 0.099 ± 0.073
115 | D58G | -0.071 ± 0.03
116 | D58V | -0.091 ± 0.044
117 | D58K | -0.129 ± 0.078
118 | T43C | 0.013 ± 0.066
119 | T43F | -0.299 ± 0.15
120 | T43P | 0.013 ± 0.041
121 | G66I | -0.772 ± 0.37
122 | G66D | -0.889 ± 0.13
123 | P12C | -0.494 ± 0.072

Row | Variant | abundance fitness
124 | P12L | -0.955 ± 0.085
125 | R77S | -0.311 ± 0.043
126 | R77F | -0.859 ± 0.2
127 | Q17P | -0.942 ± 0.14
128 | E5D | -0.371 ± 0.074
129 | L44P | -0.865 ± 0.055
130 | L44S | -0.745 ± 0.079
131 | L44Q | -1.09 ± 0.21
132 | W18L | -0.974 ± 0.087
133 | W18V | -0.927 ± 0.081
134 | W18A | -0.862 ± 0.11
135 | T37S | -0.07 ± 0.037
136 | T37G | -0.004 ± 0.038
137 | T37N | -0.027 ± 0.074
138 | T37A | -0.03 ± 0.065
139 | T37R | -0.033 ± 0.034
140 | T37Q | -0.009 ± 0.05
141 | R65E | 0.033 ± 0.055
142 | G1A | -0.1 ± 0.061
143 | G1L | -0.634 ± 0.28
144 | G1M | 0.045 ± 0.28
145 | G1T | -0.156 ± 0.26

Row | Variant | abundance fitness
146 | G48Q | -1.02 ± 0.27
147 | G48W | -0.84 ± 0.13
148 | G48N | -0.578 ± 0.39
149 | G48P | -0.633 ± 0.066
150 | G48A | -0.788 ± 0.073
151 | G10R | -0.085 ± 0.033
152 | L54K | -0.649 ± 0.16
153 | L54E | -0.484 ± 0.17
154 | L54H | -0.486 ± 0.25
155 | L54I | -0.157 ± 0.095
156 | V23M | -0.844 ± 0.15
157 | V23F | -0.89 ± 0.16
158 | R49W | -0.143 ± 0.043
159 | R49A | 0.006 ± 0.038
160 | R49C | -0.109 ± 0.066
161 | V63Q | -0.235 ± 0.068
162 | V63Y | -0.221 ± 0.1
163 | V63D | -0.667 ± 0.18
164 | V63N | -0.384 ± 0.12
165 | R8L | -0.06 ± 0.035
166 | R8P | -0.596 ± 0.07
167 | L24Y | -0.278 ± 0.15
